# Molecular target: N36 peptide (HIV-1)
# Experiment: ELISA; competition ELISA of 6-HB formation: plate coated with the 6-HB-specific mAb NC-1; inhibitor at 0.312-20 uM with N36 (final 1 uM) and biotin-C34 (final 2 uM) in PBS, 37 °C, 1 h; streptavidin-HRP detection
# Sequence of N36 peptide (HIV-1) (P03375 546-581 limits assumed): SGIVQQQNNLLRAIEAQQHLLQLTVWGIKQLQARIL
substance,measurement,value
C10-T1144 (peptide),IC50,2.42 µM

# From PMC9025429
